Assay results from patent US20250057840.

Key:
[1] = target: GFP-MAGI1 Y373F (human MAGI1c-Y373F-GFP) (UniProt Q96QZ7)
[2] = target: GFP-tagged MAGI1 WT (human MAGI1c, pCMV6-AC-GFP-MAGI1c WT, Origene #RG212712) (UniProt Q96QZ7)
[3] = target: myc-tagged MAGI1 deletion of GUK domain (murine, pCDNA3.1) (UniProt Q6RHR9)
[4] = target: myc-tagged MAGI1 deletion of GUK-WW domains (murine, pCDNA3.1) (UniProt Q6RHR9)
[5] = target: myc-tagged MAGI1 deletion of WW domain (murine, pCDNA3.1) (UniProt Q6RHR9)
Chain of myc-tagged MAGI1 deletion of WW domain (murine, pCDNA3.1) (Q6RHR9 other isoform, or with tags, fused parts or gaps): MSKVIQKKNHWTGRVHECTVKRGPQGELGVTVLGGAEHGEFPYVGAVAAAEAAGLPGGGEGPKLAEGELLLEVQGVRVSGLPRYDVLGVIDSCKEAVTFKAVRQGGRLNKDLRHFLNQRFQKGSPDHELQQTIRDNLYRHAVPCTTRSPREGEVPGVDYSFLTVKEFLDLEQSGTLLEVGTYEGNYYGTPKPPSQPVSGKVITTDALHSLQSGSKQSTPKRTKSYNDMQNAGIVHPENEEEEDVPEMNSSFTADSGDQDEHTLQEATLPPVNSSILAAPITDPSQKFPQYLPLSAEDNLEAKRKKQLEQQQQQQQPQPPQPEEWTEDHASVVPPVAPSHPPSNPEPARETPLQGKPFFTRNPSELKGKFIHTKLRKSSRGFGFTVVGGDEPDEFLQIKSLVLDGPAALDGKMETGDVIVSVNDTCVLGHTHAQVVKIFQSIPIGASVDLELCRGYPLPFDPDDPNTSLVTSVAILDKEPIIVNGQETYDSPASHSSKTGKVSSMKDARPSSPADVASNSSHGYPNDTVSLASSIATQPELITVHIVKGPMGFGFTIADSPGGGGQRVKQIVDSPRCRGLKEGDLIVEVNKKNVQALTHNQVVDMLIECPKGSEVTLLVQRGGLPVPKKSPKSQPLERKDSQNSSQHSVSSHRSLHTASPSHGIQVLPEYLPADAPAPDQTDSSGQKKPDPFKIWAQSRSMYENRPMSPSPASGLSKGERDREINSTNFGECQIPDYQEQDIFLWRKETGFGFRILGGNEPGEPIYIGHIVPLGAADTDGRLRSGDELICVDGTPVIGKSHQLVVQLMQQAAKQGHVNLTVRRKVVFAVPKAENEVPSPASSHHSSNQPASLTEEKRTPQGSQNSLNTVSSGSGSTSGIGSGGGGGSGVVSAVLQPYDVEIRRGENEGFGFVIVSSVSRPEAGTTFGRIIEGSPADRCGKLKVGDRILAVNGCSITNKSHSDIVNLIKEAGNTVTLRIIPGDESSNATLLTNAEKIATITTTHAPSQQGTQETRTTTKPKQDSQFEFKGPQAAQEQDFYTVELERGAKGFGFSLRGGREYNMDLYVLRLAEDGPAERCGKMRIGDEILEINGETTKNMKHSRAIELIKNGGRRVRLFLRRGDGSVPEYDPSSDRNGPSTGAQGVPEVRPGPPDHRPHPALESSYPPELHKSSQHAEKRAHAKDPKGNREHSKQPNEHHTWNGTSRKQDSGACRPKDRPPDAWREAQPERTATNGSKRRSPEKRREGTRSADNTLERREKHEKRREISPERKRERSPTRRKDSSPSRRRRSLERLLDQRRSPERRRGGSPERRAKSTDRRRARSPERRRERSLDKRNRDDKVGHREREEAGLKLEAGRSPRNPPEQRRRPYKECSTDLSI

Chain of myc-tagged MAGI1 deletion of GUK domain (murine, pCDNA3.1) (Q6RHR9 other isoform, or with tags, fused parts or gaps): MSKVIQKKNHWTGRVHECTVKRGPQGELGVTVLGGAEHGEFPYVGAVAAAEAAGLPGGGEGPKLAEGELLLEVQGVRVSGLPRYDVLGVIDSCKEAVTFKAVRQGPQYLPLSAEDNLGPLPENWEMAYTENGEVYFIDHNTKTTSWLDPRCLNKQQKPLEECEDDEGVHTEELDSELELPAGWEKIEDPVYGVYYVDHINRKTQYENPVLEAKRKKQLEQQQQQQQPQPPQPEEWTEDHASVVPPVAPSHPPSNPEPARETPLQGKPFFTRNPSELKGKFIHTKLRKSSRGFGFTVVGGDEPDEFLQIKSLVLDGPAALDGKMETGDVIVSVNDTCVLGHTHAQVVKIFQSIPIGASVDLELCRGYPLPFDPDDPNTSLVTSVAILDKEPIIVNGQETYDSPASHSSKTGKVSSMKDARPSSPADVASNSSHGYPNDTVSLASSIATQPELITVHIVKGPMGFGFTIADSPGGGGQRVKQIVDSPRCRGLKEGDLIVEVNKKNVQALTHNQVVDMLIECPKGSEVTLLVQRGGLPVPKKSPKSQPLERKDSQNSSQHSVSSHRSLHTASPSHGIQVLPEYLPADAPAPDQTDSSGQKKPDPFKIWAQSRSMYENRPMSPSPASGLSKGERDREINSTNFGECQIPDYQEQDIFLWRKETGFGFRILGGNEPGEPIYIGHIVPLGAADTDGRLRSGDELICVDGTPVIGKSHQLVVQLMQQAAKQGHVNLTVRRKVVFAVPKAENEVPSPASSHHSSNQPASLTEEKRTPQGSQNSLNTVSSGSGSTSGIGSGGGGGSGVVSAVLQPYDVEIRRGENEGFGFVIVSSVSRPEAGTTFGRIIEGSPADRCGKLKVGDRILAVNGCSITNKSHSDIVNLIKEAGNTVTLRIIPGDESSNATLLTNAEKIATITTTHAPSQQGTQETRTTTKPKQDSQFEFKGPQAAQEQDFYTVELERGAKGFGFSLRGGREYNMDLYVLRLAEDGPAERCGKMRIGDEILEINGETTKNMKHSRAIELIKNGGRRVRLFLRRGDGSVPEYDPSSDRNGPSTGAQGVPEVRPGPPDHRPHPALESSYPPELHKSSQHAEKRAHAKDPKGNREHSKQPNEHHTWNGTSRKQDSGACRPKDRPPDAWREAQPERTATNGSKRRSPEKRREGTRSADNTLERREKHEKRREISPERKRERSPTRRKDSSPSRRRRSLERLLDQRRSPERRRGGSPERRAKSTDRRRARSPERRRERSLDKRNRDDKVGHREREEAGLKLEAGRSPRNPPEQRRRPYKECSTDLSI
Chain of myc-tagged MAGI1 deletion of GUK-WW domains (murine, pCDNA3.1) (Q6RHR9 other isoform, or with tags, fused parts or gaps): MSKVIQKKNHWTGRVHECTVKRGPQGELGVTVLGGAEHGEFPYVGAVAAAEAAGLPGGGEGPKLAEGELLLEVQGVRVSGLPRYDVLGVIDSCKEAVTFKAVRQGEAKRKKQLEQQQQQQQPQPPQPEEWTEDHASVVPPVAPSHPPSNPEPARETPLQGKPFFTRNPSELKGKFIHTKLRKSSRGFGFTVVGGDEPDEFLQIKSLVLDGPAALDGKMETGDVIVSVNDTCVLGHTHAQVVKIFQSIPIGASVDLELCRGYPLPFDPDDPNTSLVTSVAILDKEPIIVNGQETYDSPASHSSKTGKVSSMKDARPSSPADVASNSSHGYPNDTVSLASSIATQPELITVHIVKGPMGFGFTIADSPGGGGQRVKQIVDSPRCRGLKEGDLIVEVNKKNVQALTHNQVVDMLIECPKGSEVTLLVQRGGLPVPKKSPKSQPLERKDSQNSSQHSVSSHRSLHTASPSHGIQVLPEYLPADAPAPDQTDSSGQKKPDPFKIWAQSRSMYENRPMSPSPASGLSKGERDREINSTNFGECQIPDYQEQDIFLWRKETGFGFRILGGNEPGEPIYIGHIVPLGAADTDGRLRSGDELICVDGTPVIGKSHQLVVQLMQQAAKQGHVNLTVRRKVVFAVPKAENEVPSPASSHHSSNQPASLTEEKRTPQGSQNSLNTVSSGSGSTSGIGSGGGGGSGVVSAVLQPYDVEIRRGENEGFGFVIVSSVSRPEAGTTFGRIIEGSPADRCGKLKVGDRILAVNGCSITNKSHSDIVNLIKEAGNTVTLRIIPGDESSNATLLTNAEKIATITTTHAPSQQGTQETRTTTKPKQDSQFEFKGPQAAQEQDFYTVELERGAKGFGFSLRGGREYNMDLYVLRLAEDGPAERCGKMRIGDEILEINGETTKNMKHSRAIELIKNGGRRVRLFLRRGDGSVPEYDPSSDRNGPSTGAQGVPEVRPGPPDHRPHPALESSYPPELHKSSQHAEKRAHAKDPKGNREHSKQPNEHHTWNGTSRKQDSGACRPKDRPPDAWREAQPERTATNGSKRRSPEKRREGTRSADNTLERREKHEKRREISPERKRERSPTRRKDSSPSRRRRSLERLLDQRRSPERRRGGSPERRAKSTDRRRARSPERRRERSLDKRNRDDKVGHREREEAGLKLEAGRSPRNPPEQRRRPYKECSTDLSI

“proto-oncogene tyrosine-protein kinase Src (SRC), wild type, expressed from pCMV SRC WT in 293T cells” was tested, and the “phosphorylation of MAGI1 at Y373 (western blot with rabbit antisera against pMAGI1 Y373, 293T co-expression)” value [1] was “co-expression of SRC and WT MAGI1 but not Y373F mutant resulted in strong phosphorylation of MAGI1 at Y373”, the “phosphorylation of MAGI1 at Y373 (western blot with rabbit antisera against pMAGI1 Y373, 293T co-expression)” value [2] was “co-expression of SRC and WT MAGI1 but not Y373F mutant resulted in strong phosphorylation of MAGI1 at Y373” and the “Y373 phosphorylation (western blot with pMAGI1 Y373 antisera, 293T co-expression)” value (shortened to “Y373 phosphorylation”) [3] was “Y373 phosphorylation was abolished when WW domain was absent but not GUK”. The “Y373 phosphorylation” value [4] was “Y373 phosphorylation was abolished when WW domain was absent but not GUK” and the “Y373 phosphorylation” value [5] was “Y373 phosphorylation was abolished when WW domain was absent but not GUK”.
